Measured values as given in patent US20250109209A1.

Assays:
human TL1A (human) [1] = target: human TL1A (human) (UniProt O95150); assay: SPR, mAb format, average
Cyno TL1A (cyno) [2] = target: Cyno TL1A (cyno) (UniProt G7PRK8); assay: SPR, mAb format, average
mouse TL1A (mouse) = mouse TL1A (mouse) (UniProt Q5UBV8); assay: SPR, mAb format, average
Cyno TL1A (cyno) [3] = target: Cyno TL1A (cyno) (UniProt G7PRK8); assay: SPR, representative sensorgram with Cyno TL1A
human TL1A (human) [4] = target: human TL1A (human) (UniProt O95150); assay: selectivity ELISA: antibody pre-incubated with TL1A, inhibition of TL1A binding to plate-coated DR3
human TL1A (human) [5] = target: human TL1A (human) (UniProt O95150); assay: SPR, representative sensorgram with Human TL1A
human TL1A (human) [6] = target: human TL1A (human) (UniProt O95150); assay: selectivity ELISA: antibody pre-incubated with TL1A, inhibition of TL1A binding to plate-coated DcR3

human TL1A (human), sequence (O95150 72-251 limits assumed): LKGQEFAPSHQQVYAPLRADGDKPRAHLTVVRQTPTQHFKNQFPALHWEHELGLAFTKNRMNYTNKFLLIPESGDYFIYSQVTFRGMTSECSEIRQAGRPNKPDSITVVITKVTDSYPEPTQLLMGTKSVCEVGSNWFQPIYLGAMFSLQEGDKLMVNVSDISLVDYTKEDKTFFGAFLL
Cyno TL1A (cyno), sequence (G7PRK8 entry or part of it): as the sequence (O95150 72-251 limits assumed) above, with F39L, I78V counted along it
mouse TL1A (mouse), sequence (Q5UBV8 76-252 V180M/M218T limits assumed): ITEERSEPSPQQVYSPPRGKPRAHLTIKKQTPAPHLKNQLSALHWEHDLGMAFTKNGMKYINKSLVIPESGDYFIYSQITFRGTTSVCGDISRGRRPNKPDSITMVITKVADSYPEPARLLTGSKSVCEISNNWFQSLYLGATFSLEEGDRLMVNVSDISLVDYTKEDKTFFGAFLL

B1: Heron2B (antibody, INN chains, looked up, V domains shown)
VH: QVQLVQSGAEVKKPGASVKVSCKASGFDIQDTYMHWVKQRPGQGLEWMGRIDPASGHTKYDPKFQVRVTITRDTSTSTVYLELSSLRSEDTAVYYCARSGGLPDVWGQGTTVTVSS
VL: EIVLTQSPGTLSLSPGERATLSCRASSSVSYMYWYQQKPGQAPRPLIYATSNLASGIPDRFSGSGSGTDFTLTISRLEPEDFAVYYCQQWEGNPRTFGGGTKLEIK
Kd (human TL1A (human) [1]): 0.365 nM | Kd (Cyno TL1A (cyno) [2]): 0.09 nM | Kd (mouse TL1A (mouse)): 81900 nM | Kd (Cyno TL1A (cyno) [3]): 0.114 nM | IC50 (human TL1A (human) [4]): 6.3 µg/mL | Kd (human TL1A (human) [5]): 0.339 nM | IC50 (human TL1A (human) [6]): 3.6 µg/mL
